From article PMC8651051

How the values were obtained:
Settings in all cases: N = 1 experiment
CV503_664_GS = biological target: CV503_664_GS
CV503_993_EL = biological target: CV503_993_EL
CV664_993_GS = biological target: CV664_993_GS
CV993_521_GS = biological target: CV993_521_GS

| Substance | percent of parent (CV503_664_GS) | percent of parent (CV503_993_EL) | percent of parent (CV664_993_GS) | percent of parent (CV993_521_GS) |
| --- | --- | --- | --- | --- |
| full-length SARS-CoV-2 spike D614G, expressed on the cell surface (from UniProt P0DTC2) Alpha (B.1.1.7) | 236 % of D614G | 214 % of D614G | 257 % of D614G | 222 % of D614G |
| full-length SARS-CoV-2 spike D614G, expressed on the cell surface (from UniProt P0DTC2) Beta (B.1.351) | 202 % of D614G | 170 % of D614G |  |  |
